The values below come from publication PMC13571933, “Active transport by cytoplasmic dynein sustains dendritic MAP2 localization in developing neurons” (The Journal of Biological Chemistry, 2026).

Assay [1] concerns the target GFP-MAP2C ΔSP (human MAP2C lacking the serine/proline-rich region), expressed in HEK293 cells (human) (UniProt P11137). The experiment in a line: co-IP; anti-His antibody on Dynabeads Protein G; 500 μg lysate of HEK293 cells co-expressing DHC1 and GFP-His-MAP2C; 50 mM Hepes pH 7.4, 100 mM NaCl, 2 mM EDTA, 0.5% Triton X-100; 1 h at 4 °C; blot with anti-DHC1 and anti-GFP, bands quantified with ImageJ.

Assay [2] deals with T1, microtubules (MTs), endogenous in cultured rat hippocampal neurons (rat (endogenous in hippocampal neurons), UniProt Q4QRB4 1-450, Representative alpha/beta heterodimer of a microtubule polymer (many copies). Endogenous neuronal microtubules are a mixture of tubulin isotypes. The alpha member is not told in the paper (Tuba1a assu)). The experiment in a line: FRAP fitted with a reaction-diffusion simulation; as a3 but with 40 μM MT binding sites assumed. The note with it: partners not purified.

In assay [3] the target is T1, microtubules (MTs), endogenous in …. The assay can be described thus: FRAP fitted with a reaction-diffusion simulation; FRAP of GFP-MAP2C in living neurons; KD from the best fit of a VCell simulation; 75 μM MT binding sites, 25 μM GFP-MAP2C and 5 μM endogenous MAP2 assumed; kon set, koff adjusted. The settings on record: partners not purified.

Usually Kd stands for a measure of binding affinity in units of concentration.

“cytoplasmic dynein heavy chain 1 (DHC1), expressed from a plasmid in HEK293 cells, Q14204 1-4646”: in assay [1], the co-immunoprecipitated DHC1 normalized to immunoprecipitated GFP-MAP2C, relative to WT (relative to the WT condition (set to 1)) turned out to be 0.45.

B1: GFP-MAP2C (human MAP2C tagged with AcGFP and 6xHis, wild type), expressed in cultured rat hippocampal neurons (natural protein, UniProt P11137-2 1-471, looked up)
chain: MADERKDEAKAPHWTSAPLTEASAHSHPPEIKDQGGAGEGLVRSANGFPYREDEEGAFGEHGSQGTYSNTKENGINGELTSADRETAEEVSARIVQVVTAEAVAVLKGEQEKEAQHKDQTAALPLAAEETANLPPSPPPSPASEQTVTVEEAAGGESALAPSVFKQAKDKVSDGVTKSPEKRSSLPRPSSILPPRRGVSGDRDENSFSLNSSISSSARRTTRSEPIRRAGKSGTSTPTTPGSTAITPGTPPSYSSRTPGTPGTPSYPRTPHTPGTPKSAILVPSEKKVAIIRTPPKSPATPKQLRLINQPLPDLKNVKSKIGSTDNIKYQPKGGQVQIVTKKIDLSHVTSKCGSLKNIRHRPGGGRVKIESVKLDFKEKAQAKVGSLDNAHHVPGGGNVKIDSQKLNFREHAKARVDHGAEIITQSPGRSSVASPRRLSNVSSSGSINLLESPQLATLAEDVTAALAKQGL
notes: MAP2C, low molecular weight isoform of human microtubule-associated protein 2; the 471-amino-acid isoform; Same construct as m1, other host; also called wild-type GFP-MAP2C; WT; source: cultured rat hippocampal neurons, transfected, in living cells; not shown: AcGFP, N-terminal, kept
For the molecule B1, the Kd in assay [2] was 1 µM; in assay [3], 4.5 µM.
